For 1 protein, Km results are on record in article PMC12459221, “A flexible, allosteric loop regulates protein activity and rewires electrostatics” (Protein Science : A Publication of the Protein Society, 2025).

Substrate in the data set: C=C(O[C@@H]1C=C(C(=O)O)C=C[C@H]1O)C(=O)O
Put plainly: enzyme kinetics, triplicate. The class given is biochemical, Saccharomyces cerevisiae. To be noted: pH 6.5 or 7.5, 22 °C, 150 mM NaCl. The source says:
enzyme kinetics, triplicate on chorismate mutase (CM) | a similar mutation (E219A)

B1: chorismate mutase (CM) (Saccharomyces cerevisiae S288C; E219A) (protein)
chain: MDFTKPETVLNLQNIRDELVRMEDSIIFKFIERSHFATCPSVYEANHPGLEIPNFKGSFLDWALSNLEIAHSRIRRFESPDETPFFPDKIQKSFLPSINYPQILAPYAPEVNYNDKIKKVYIEKIIPLISKRDGDDKNNFGSVATRDIECLQSLSRRIHFGKFVAEAKFQSDIPLYTKLIKSKDVEGIMKNITNSAVEEKILERLTKKAEVYGVDPTNASGERRITPEYLVKIYKEIVIPITKEVEVEYLLRRLEE
notes: TEV-cleavable tagged CM in pET21a, E. coli BL21*(DE3); 60 kDa homodimer
As a reminder, the Km is the substrate concentration at which the rate is half of its maximum. Consider B1, for which the Km was determined as 600 ± 200 µM.
